Measurements as given in patent US20230346885A1 (published 2023).
Positions count from the first letter of the chain named. Blank lines part the entries; values can stand above or below the binder they belong to.

Experiments:
Assay in all cases: binding, other
SAGE1 peptide on HLA [1] = target: T1, SAGE1 peptide on HLA (human)
T1 peptide: GLYSTVPHNV

SAGE1 peptide on HLA [2] = target: T2, SAGE1 peptide on HLA (human)
T2 peptide: TVLPGLTYL

SAGE1 peptide on HLA [3] = target: T3, SAGE1 peptide on HLA (human)
T3 peptide: VLIQQLEKA

B3: TCR of SEQ ID NOs 535 and 536 (TCR, V domains shown)
Valpha: KQEVTQIPAALSVPEGENLVLNCSFTDSAIYNLQWFRQDPGKGLTSLLLIQSSQREQTSGRLNASLDKSSGRSTLYIAASQPGDSATYLCAVGGYQKVTFGTGTKLQVIP
Vbeta: NAGVTQTPKFRVLKTGQSMTLLCAQDMNHNYMYWYRQDPGMGLKLIYYSVGAGITDKGEVPNGYNVSRSTTEDFPLRLELAAPSQTSVYFCASRVDTLGEAFFGQGTRLTVV
binding result (SAGE1 peptide on HLA [1]): recognises

B5: TCR of SEQ ID NOs 545 and 546 (TCR, V domains shown)
Valpha: KQEVTQIPAALSVPEGENLVLNCSFTDSAIYNLQWFRQDPGKGLTSLLLIQSSQREQTSGRLNASLDKSSGRSTLYIAASQPGDSATYLCAVRDDYKLSFGAGTTVTVRA
Vbeta: NAGVTQTPKFRVLKTGQSMTLLCAQDMNHEYMYWYRQDPGMGLRLIHYSVGEGTTAKGEVPDGYNVSRLKKQNFLLGLESAAPSQTSVYFCASSYGPGQIYGYTFGSGTRLTVV
binding result (SAGE1 peptide on HLA [3]): recognises

B8: TCR of SEQ ID NOs 539 and 540 (TCR, V domains shown)
Valpha: KQEVTQIPAALSVPEGENLVLNCSFTDSAIYNLQWFRQDPGKGLTSLLLIQSSQREQTSGRLNASLDKSSGRSTLYIAASQPGDSATYLCAVRVTGANNLFFGTGTRLTVIP
Vbeta: NAGVTQTPKFQVLKTGQSMTLQCAQDMNHEYMSWYRQDPGMGLRLIHYSVGAGITDQGEVPNGYNVSRLNKREFSLRLESAAPSQTSVYFCASRPVGGDYTGELFFGEGSRLTVL
binding result (SAGE1 peptide on HLA [2]): recognises

B9: TCR of SEQ ID NOs 547 and 548 (TCR, V domains shown)
Valpha: KQEVTQIPAALSVPEGENLVLNCSFTDSAIYNLQWFRQDPGKGLTSLLLIQSSQREQTSGRLNASLDKSSGRSTLYIAASQPGDSATYLCAVRQGYSTLTFGKGTMLLVSP
Vbeta: NAGVTQTPKFQVLKTGQSMTLQCAQDMNHNSMYWYRQDPGMGLRLIYYSASEGTTDKGEVPNGYNVSRLNKREFSLRLESAAPSQTSVYFCASSYSYPLAVGELFFGEGSRLTVL
binding result (SAGE1 peptide on HLA [3]): recognises

Further lines, results first:

binding result (SAGE1 peptide on HLA [1]): recognises
B1: TCR of SEQ ID NOs 533 and 534 (TCR, V domains shown)
Valpha: B3 Valpha with G93S, Q96S, K97T, V98L, T102K, K105M, Q107L, I109S
Vbeta: NAGVTQTPKFQVLKTGQSMTLQCAQDMNHEYMSWYRQDPGMGLRLIHYSVGAGITDQGEVPNGYNVSRSTTEDFPLRLLSAAPSQTSVYFCASSEGPFSEAFFGQGTRLTVV

binding result (SAGE1 peptide on HLA [1]): recognises
B2: TCR of SEQ ID NOs 537 and 538 (TCR, V domains shown)
Valpha: B3 Valpha with Q96D, T99I, T102P, K105S, Q107S
Vbeta: B1 Vbeta with S94R, E95L, P97Q, S99G, E100Q

binding result (SAGE1 peptide on HLA [2]): recognises
B4: TCR of SEQ ID NOs 541 and 542 (TCR, V domains shown)
Valpha: B5 Valpha with R93D, D94S, D95W, Y96G, S99Q, T105Q, T107V, R109T, A110P
Vbeta: NAGVTQTPKFQVLKTGQSMTLQCAQDMNHEYMSWYRQDPGMGLRLIHYSVGAGITDQGEVPNGYNVSRSTTEDFPLRLLSAAPSQTSVYFCASSSLGLGDYGYTFGSGTRLTVV

binding result (SAGE1 peptide on HLA [2]): recognises
B6: TCR of SEQ ID NOs 543 and 544 (TCR, V domains shown)
Valpha: B5 Valpha with R93G
Vbeta: NAGVTQTPKFQVLKTGQSMTLQCAQDMNHNSMYWYRQDPGMGLRLIYYSASEGTTDKGEVPNGYNVSRLNKREFSLRLESAAPSQTSVYFCASSEGWGGRTEAFFGQGTRLTVV

binding result (SAGE1 peptide on HLA [3]): recognises
B7: TCR of SEQ ID NOs 549 and 550 (TCR, V domains shown)
Valpha: B5 Valpha with R93S, D94N
Vbeta: NAGVTQTPKFRVLKTGQSMTLLCAQDMNHEYMYWYRQDPGMGLRLIHYSVGEGTTAKGEVPDGYNVSRLKKQNFLLGLESAAPSQTSVYFCASSYSSRIYNEQFFGPGTRLTVL
